Reference: the supplement of paper PMC10567573
± gives the standard deviation.

Test: protein stability index of a GFP-peptide fusion (GPS, HEK-293T) (PSI 1-6); higher = more stable
Conditions: c terminus: a fixed tail appended
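Further: 24-mer peptide tiles fused after GFP, lentivirally expressed, FACS-sorted into six equal bins by GFP/DsRed ratio, decoded by Illumina sequencing, PSI is the read-weighted mean bin number.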

Sequence	protein stability index (treatment: DMSO)	protein stability index (treatment: MLN4924 1 uM, 8 h)
VVLDRHGVYGLQRNLLVENIIDIY [TRIM55]	2.44 ± 0.8	2.81 ± 0.099
WAAPRVGPLPPAPAMVRISKPKTF [YPEL3]	3.15 ± 0.43	3.25 ± 0.18
WAISSWFRRGPAPQDQAGPGGAPR [CLPTM1]	2.75 ± 0.47	3.21 ± 0.48
WALGCVLYELASLKRAFEAANLPA [NEK8]	2.99 ± 0.3	2.9 ± 0.46
WELHSLRHCDDDGRTENGALAPKQ [ZNF24]	4.91 ± 0.16	4.95 ± 0.19
WESSAGGSFTVRADHGEPIGRGTK [HSP90AB1]	4.83 ± 0.28	4.79 ± 0.55
WILFPLLGCYAVYSLLYLEHKGWY [CLPTM1]	2.9 ± 0.28	3.4 ± 0.072
WKPPDIKGKLMVCYETLPRGQCLL [SPAG8]	2.27 ± 0.4	2.32 ± 0.41
WSIPWKWLFGATAVALGGVALSVV [FKBP8]	4.11 ± 0.43	3.98 ± 0.14
WTVWSGNRASLYSFPEPEAAQPMT [PRAME]	2.45 ± 0.034	2.57 ± 0.25
WVCLAYFTSGFNAAALDYEADGST [SPACA3]	2.9 ± 0.46	2.91 ± 0.25
WVGFDDVESFKTKVSYLKQKGLGG [CHIT1]	2.36 ± 0.33	2.69 ± 0.36
WWTNWVIPAISAVAVALMYRLYMA [CYB5A]	3.22 ± 0.15	3.29 ± 0.36
YFAIKQEVVTPDNMCMGRTSRGKL [ETS1]	3.5 ± 0.23	3.49 ± 0.22
YFFCENDAEFLCVFCREGPTHQAH [TRIM15]	2.26 ± 0.35	2.33 ± 0.54
YFFPVIFSKASSSLQLVFGIELME [MAGEA3]	3.44 ± 0.27	2.96 ± 0.25
YFKCVQKDIQPYMRRMVATWMLEV [CCND2]	2.71 ± 0.55	2.4 ± 0.45
YFRHADPTWQNSIRHNLSLNKCFI [FOXJ1]	2.45 ± 0.41	2.23 ± 0.31

Sequence	protein stability index (treatment: DMSO)	protein stability index (treatment: MLN4924 1 uM, 8 h)
YFTWDEVAQRSGCEERWLVIDRKV [FADS1]	2.65 ± 0.17	2.82 ± 0.27
YGEFYKSLTNDWEDHLAVKHFSVE [HSP90AB1]	2.46 ± 0.31	2.87 ± 0.28
YKDFLWFFSKRFKSAAMLAVFAVS [SOAT1]	2.25 ± 0.49	2.4 ± 0.53
YLDVDLTLTREQTERLSHQITSRV [RTN2]	3.17 ± 0.18	3.23 ± 0.34
YLEGFDPFNQSTFNNVVEQNFKNR [DLC1]	2.89 ± 0.26	3.15 ± 0.39
YLEKYYNLKNDGRQVEKRRNSGPV [MMP1]	2.68 ± 0.57	3.27 ± 0.4
YLNSFLHQRIPQSVRILGSLVAIL [SLC29A1]	2.15 ± 0.25	2.23 ± 0.21
YLSNARPDNWFCYPCIPNHELVWA [ZMYND11]	2.67 ± 0.34	2.23 ± 0.49
YQETMVESTFMYLTLDLPTAPLYK [USP39]	2.36 ± 0.52	2.28 ± 0.21
YQLELQCCIDWTHVTDPLIGCKKP [SMG5]	2.38 ± 0.45	2.1 ± 0.3
YQRVLPLPIFTPAKMGATKEERED [TCAP]	3.01 ± 0.69	3.62 ± 0.78
YRGAVYADNMEFEQCIKLWLHALH [FEM1B]	2.19 ± 0.27	2.22 ± 0.48
YSFISLFIYMVLSLFIALITGAYD [MCOLN1]	3.14 ± 0.48	3.22 ± 0.45
YSSSRDGYGGSRDSYSSSRSDLYS [RBMX]	3.51 ± 0.14	3.79 ± 0.21
YTFVPWLLSFKRGSALEEKENKIL [TNFSF13B]	2.51 ± 0.59	2.22 ± 0.3
YTTEFHELEKIGSGEFGSVFKCVK [WEE1]	2.49 ± 0.85	3 ± 0.47
YYTTMQTLTKQDTMLKAMFSGRME [KCTD10]	2.4 ± 0.16	2.4 ± 0.36
